Measured values published in patent US20190284258A1, “HAEMADIPSA SYLVESTRIS ANTITHROMBOTIC PEPTIDE SYLVESTIN AND USE THEREOF” (priority 2016, published 2019).

Molecular target: kallikrein
Experiment: enzyme inhibition kinetics, chromogenic substrate, OD 405 nm

## TSEPVCACPKMLFWVCGKDGETYTHPCIAKCHNVEVEHDGKCK (modifications not checked) [Haemadipsa sylvestris antithrombotic peptide Sylvestin]
  Ki: 0.0178 µM
